In the DeepSol protein solubility set:

Test: soluble on expression in E. coli; label from the status in PepcDB or PDB records

Sequence | soluble on expression in E. coli
MGSDKIHHHHHHMTKAVAETLESKAAKAAPMDRLWAENDDSRVTGDPSLVVDVAGFEGPLDLLLHLARTQKVDLARISILALVEQYLAFVETARALRLELAADYLVMAAWLAFLKSKLLIPKQPGEEGESGEELAAVLQFRLKRLEAMRDAAARLVNRNRLGRDVFARGMPEMVIIEKRNAYSASLYDLLTAYAQQRQKQAVTNVTIARRGVWSLKDARDILTRLIGSLRDWTALDSFLIRYMTSPEERRTAIASSFAATLELVRERKMDLRQDEVFAPIYLRDHRAPAIKAVEVAS | not soluble
HHHHHHGSAQLPSPTNGKKWEKVEQLSDEFDGNSIDTNKWYDYHPFWEGRAPSNFKKGDAFVSDGFLNLRSTLRKEPSSVQDPFKDIWVDAAAAVSKTKAQPGYYYEARFMASSLSMTSSFWFRVGQFSSIDVIEHIGDPSKENRQDDLPYQYHVNTHYYGKHAGLQPLGTEYKMPGRGRDNFYTYGFWWKSPNELLFYFNGKQVMRIVPRVPLDEELRMIFDTEVFPFATAGVANIGLPKPENLRDNSKNTMKVDWVRVYKLVDGTA | soluble
MGSDKIHHHHHHMTTDNAKAQLTSSSGGNIIVVSNRLPVTITKNSSTGQYEYAMSSGGLVTALEGLKKTYTFKWFGWPGLEIPDDEKDQVRKDLLEKFNAVPIFLSDEIADLHYNGFSNSILWPLFHYHPGEINFDENAWLAYNEANQTFTNEIAKTMNHNDLIWVHDYHLMLVPEMLRVKIHEKQLQNVKVGWFLHTPFPSSEIYRILPVRQEILKGVLSCDLVGFHTYDYARHFLSSVQRVLNVNTLPNGVEYQGRFVNVGAFPIGIDVDKFTDGLKKESVQKRIQQLKETFKGCKIIVGVDRLDYIKGVPQKLHAMEVFLNEHPEWRGKVVLVQVAVPSRGDVEEYQYLRSVVNELVGRINGQFGTVEFVPIHFMHKSIPFEELISLYAVSDVCLVSSTRDGMNLVSYEYIACQEEKKGSLILSEFTGAAQSLNGAIIVNPWNTDDLSDAINEALTLPDVKKEVNWEKLYKYISKYTSAFWGENFVHELYSTSSSSTSSSATKN | not soluble
MAHHHHHHMDSASGDGGDGAPASAERHSLKPLRWIEEVRDASQPNAVFLNVYDVRGSSTLLYSVGWGVHHVGVQVYGKEYQYGHRPIGKGIGSVKPHQSPPHTYREQFFLGQTQLSASEVEKLVVAFSDKVEWLGSNYHLVKHNCIDFARAFCEALLPPAVRVEQARRAEEAGLSQKMHMVEVEVDGMRHSVPVLIPHHVDRLARYAAHYLPKSSMQRFDRLESSFFSMSEVPQERGQPTAADPDTNRSTTPTPQPHTRTSH | not soluble
MGSDKIHHHHHHMLARDKSNLKIEEIRMHKHHEIHRVKPLMPALCRIRQGKKVINWETHSLTVDNNQIILFPCGYEFYIVNYPEAGLYLAEMLYYPIDLIEKFQKFYAITDQIRNTTGFCLPQNPELIYCWEQLKTSISRGFSTQIQEHLAMGVLLSLGAHHVNCLLLSDSKQSLISRCYNLMLSEPRTKWTANKVARYLYISVSTLHRRLASEGISFQSILDDVRLNNALSCYTNDSKTHQRDCQGKWLQVSFSFY | not soluble
MGSDKIHHHHHHMIKGIGTNVDTRRVNGSIKRLVSELEFFKSIGFDYVEIPAAGLDVIARGRIIRKRLERVKELLSNYNFRYTVHAPDVINLKIKTNPWHYRVMEATIEFAGEINAEVVVYHYGEVDHSIDVPERVQRKAEIVALRELADLAKEKGVVIGVENVGHPVSEVLKLVRAVNHPNVKLVIDVGHLFIVSNYTGIDFYDELKKGLPYAVELHLSDNFGESPQTYQKIPDVEAFRFVYGIGDLHLPIGEGDIPYNKVFRIIRESGFDGIVILEINSMDRFADEYADSLNLLRKRLILAADNNKTKKRRKVK | not soluble
MKGKITLFFTALCFGLTGCIAPPKGLEKERFSINSYREISPQDLTCHCKTVRLGGKIVNTTVLANQTKIEVLSLPVSSISAKPFVELQSDGRFIVYFNGFVEPENLKERYITVGGQLAGTEKGKIEQADYTYPVVQADKYRIWTLSTTYDYPTDDWDEDDDWGFFRWRHRLWYVQPEIHYYLN | not soluble
MSLAFDTLFLNARFDGGTRHHIAVKDGRIAAITSVDQPPAGAETIDLKDALVVPGFVEGHIHLDTSFYGDAWRPHKPCADGFNVHERVAFQAQNMAEAAPMDVRARNQLDLCIGHGTTQMRSHVIVDGSVGLKSLETILRVREEYNGLIDIQLVAFPQSGILSSPGTAQLLDEAIGLGANLVGGLDPASFDRDVEKHLDVVFGVANKHGVDIDIHLHDMGTLGAFEIEQIAARTRALGMEGRVAVSHAYGLGDIPADYLKKVAEILARSGVAIMTNAPGARPFPPILALRNAGVTVFSGNDNIRDSWWPYGDGDMLRRATTLGYRSGFNIDEELRAAFDVVTASGAKALRLEGYGLRIGAKADFVALNAEHVPEAVVAVPQGRSVYKDGRLVAANGRIVGKSGEGHHHHHH | not soluble
EKTVRVVINFKKTQKTIVRVSPHASLQELAPIICSKCEFDPLHTLLLKDYQSQEPLDLTKSLNDLGLRELYAMDVNRE | soluble
MKSTGETLNIEEKVFAIADQFDHQGKIVQIKPFGNGNINDTFLVDLDGQTQTSFILQRINHQVFKNPAAVMGNMVRVTTHIKQKLQRQPLERPWLMPEVILTKNNQDHWDSGTGEFWRAISFIAGSESFDILTDPAQAKEVGTALGIFHQLLSDLSPSQLVDTLPGFHHTPIYLQQYQRALAQNPKLTGSLGPEINHCQRVIKTWLDQCGVLETAKAQGQLPLRLMHGDPKVNNILFDRQSGKAVSVIDLDTTKPGLIHYDLGDCLRSGCNLLGEETENWSAVEFDLDLCRAILEGYLPQCQHFLTAADYDYLCPAIVLISFELGLRFFTDYLNGDRYFKVKYPEHNLIRALVQFQLASHIQSQEDAIRRMIEDIRGLEHHHHHH | not soluble
MKNNADFAYQAVYRYLVQLVDQGQGESALKMPSLRHLAQRLRVSISTVQSAYSLLEKEGRIYSVAKSGYYSAPRSAAIEVRARFDSDGDLLQMHHYYARRSGMSLLSSDAPTLLQAQESPLLAMEHELVRNYPRPRQADFQPFGELQLRIALAARYTRGAEHCWHADNVHVAPDVHGAFKAVIETLGLRGGAVLVESPCAWGLLRLLRSFDIRVIELPLDETGSLDPIQLERLLLENNVGLVVLPSMFNSVRGSVRPLCNSRAVAKVLDRHQVWVLENDSHGALQFAADQTCLRHLIDPQRLIIIGTFEKCLGPEAPYGYLLCKNLDARWQAYFLLRAFELPPTRQRAIARLCSSGRLDKHLAQLREALAGHLQLMMQHLNEHTDGLLRYEVPEGGCGIWARSVYPVDMRQVFNRLLAKRIVITPGELFSLESLYGQHLWISYAIDWSRDPGELFSALAQALHLARQP | not soluble
GFTPHDSAPYGALDMADFEFEQMFTDALGIDEYGG | soluble
SNAMPSIRYPSTEFPALTGFTVPIPETWQPDPTMGTQFAARPHTPPQGFTPNIIGTVRRAATGALHNQRTELDQRATQLPDYAERGRTETTVDGFPAYHIEYAYRHHGTITIAQMITLVEVSHPHAVDIIQLTATCAGDQTADYWDTFRLMHADLTVQPHG | soluble
MGSDKIHHHHHHSKNSLPILDSFLFNLEGNTLTVTASDAETRLVTSVDVMNAQGAGLFAVSAKILLDPLKELPEQPLTFDINDENLEIFIHFQNGKYNFIGQKGDTYPQQKPLNDNAISISMDAQMLLNGISRSLFATADDELRPVMNGVYFDIHTDDLTFVASDGHKLVRLRNLAVKSPERASFILPKKPANLLKNLLAKESEQVLIKFDDNNAYITCTNFEMVCRLIEGRYPNYNSVIPQENPFKVTIDRISFLNALKRVSVFSNPASSLVKLHLKDSLITVSAQDIDFSTSAEERIVCQFDGTELSIGFKATYLIEILGNISSEEVVLELADPSRAGLIVPSENDEDEDLLMLLMPMMLND | not soluble
MEKATKRNDEECEVQLNIKRNSKHSAWTGELFKIECPVKYCVHRPNVTWCKHNGTIWVPLEVGPQLYTSWEENRSVPVFVLHFKPIHLSDNGSYSCSTNFNSQVINSHSVTIHVRERSQNSS | soluble
MKFKKLLSRIIIATMITFTGTLSYQAIEQTHISHAAHNYYGKKQCTWWAFKRRAQLGKPVSNRWGNAKNWYSNARRSGYATGHKPRKYAVMQSTRGYYGHVAVVEKVYKNGKIKISEYNYNVPLGYGTRIISKSSARNYNYIYLEHHHHHH | not soluble
MRVSCVYATASRWGGPPVASEVRGDAAISTTPDAAPGLAARRRRILFVAEAVTLAHVVRPFALAQSLDPSRYEVHFACDPRYNQLLGPLPFRHHAIHTIPSERFFGNLTQGRFYAMRTLRKYVEADLRVLDEIAPDLVVGDLRISLSVSARLAGIPYIAIANAYWSPYAQRRFPLPDVIWTRLFGVRLVKLLYRLERPLLFALQCMPLNWVRRRHGLSSLGWNLCRIFTDGDHTLYADVPELMPTYDLPANHEYLGPVLWSPAGKPPTWWDSLPTDRPIVYATLGTSGGRNLLQLVLNALAELPVTVIAATAGRSDLKTVPANAFVADYLPGEAAAARSAVVVCNGGSLTTQQALVAGVPVIGVAGNLDQHLNMEAVERAGAGVLLRTERLKSQRVAGAVMQVISRSEYRQAAARLADAFGRDRVGFPQHVENALRLMPENRPRTWLAS | not soluble
MQAWFMDDSNEDQRLPHHRNPKELVSLDYLAELGVLYWKLNPENYENDSELSKIREDRGYDYMDLLDLCPEKVSNYEEKLKNFFTEHIHKDEEIRYCLAGSGYFDVRDKDDRWIRIWMQPGDLIVLPAGIYHRFTLDASNYIKLMRLFVGEPVWTPYNRPQEEHPVRKKYIHGLTYKFGETVKAH | soluble
MLTETEGRAAVKLARKTIEIFLSKGKSPRPDASGVELSPVFEEYRGVFVTLTEGGLLRGCIGHPYPDSTLKEAILDSAISAATRDPRFPTVEQDEMKNILVEVTILTQPEKINASPKELPDKVEIGKHGLIVKQGYCQGLLLPQVAPENDMDSIDFLSHTCMKAGLSPDAWVKGAEVYCFEGQIFKEKEPDGEVIEEKFLEHHHHHH | soluble
TEQPCVEKAPAYQRFHALAQPGLPGLVLPYKYQVLVEMFRSMDTIVSMLHNRSETVTFAKVKQGVQEMMRKRFEERNVGQIKTVYPTSYRFRQECNVPTFKDSIKRSDYQLTIEPLLGQEAGGATQLTATCLLQRRQVFRQNLVERVKEQHKVFLASLNPPMAVPDDQLTRWHPRFNVDEVPDIEPAELPQPPVTEK | soluble
MQNMLSMHFFSVMASLNAMASMRVIVFLYQLSILGDCSTIDSLRDLMISQIVLAYNCISVHVNMYISTNGSEASIASRMSTLESCLFLITMNKGSASFGKRRFFYRDLA | soluble
MGSDKIHHHHHHMPRPRRTQISLEDTPYYHCCSRVVRRAFLCGDDTYSGKNYDHRRTWVESLLFELEAIFAIDVAAFAVMSNHLHLVLRVDIDSANGWTDREVLEQWHKLFKGDELTQKFAKGELVEAYEVSRLKHSIAIYRSRLCDISWFMRCLNEPIARQANQEDNCTGRFWEGRFKSQALLDEAAVLACMTYVDLNPIRAQLADTPEQSDHTSIQLRIRAALKGEQPSNLLPFIANECDNQPNGIAFSLMDYLQLVDDTGRIIRNDKRGYISESSAKILTRLNIPHDNWLKLTTDFGKLFHGPVGTLQELTDYCEHLEKRRRHFAASCQHFKSN | not soluble
